Key:
HeLa Kyoto [1] = assay: thermal stability score vs G1/S (z-score of summed log2 fold changes over temperatures); higher = more thermally stable than in G1/S
HeLa Kyoto [2] = assay: solubility change mitosis vs G1/S (difference of NP-40 vs SDS log2 ratios) (log2 ratio difference); higher = more soluble in mitosis
HeLa Kyoto [3] = assay: solubility in G1/S (NP-40 vs SDS abundance) (log2 ratio); higher = more soluble; details: cell cycle stage: G1/S
HeLa Kyoto [4] = assay: melting temperature (median over replicates), in situ; higher = more thermally stable
[5] = cell cycle stage: early G1 (4.5 h after nocodazole release)
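Throughout, for melting temperature (median over replicates), in situ: HeLa Kyoto cells synchronized by double thymidine or nocodazole block, proteins quantified by TMT10plex mass spectrometry, three independent biological replicates.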
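Throughout, for solubility change mitosis vs G1/S (difference of NP-40 vs SDS log2 ratios): synchronized HeLa Kyoto cells (double thymidine block for G1/S, nocodazole release for mitosis), protein amounts in NP-40 versus SDS lysates quantified by mass spectrometry, three biological replicates.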
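Throughout, for solubility in G1/S (NP-40 vs SDS abundance): HeLa Kyoto cells arrested at G1/S by double thymidine block, proteins quantified by TMT10plex mass spectrometry in mild NP-40 versus SDS extracts, three biological replicates.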
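Throughout, for thermal stability score vs G1/S (z-score of summed log2 fold changes over temperatures): synchronized HeLa Kyoto cells, proteins quantified by TMT10plex mass spectrometry, three biological replicates, mitosis taken 0.5 h after nocodazole release, G1/S directly after double thymidine block.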

Sequence	thermal stability score (HeLa Kyoto [1]; [5])	thermal stability score (HeLa Kyoto [1]; cell cycle stage: mitosis)	solubility change mitosis (log2) (HeLa Kyoto [2])	solubility in G1/S (log2) (HeLa Kyoto [3])	melting temperature (HeLa Kyoto [4]; cell cycle stage: G1/S)	melting temperature (HeLa Kyoto [4]; cell cycle stage: mitosis)
MVEPGQDLLLAALSESGISPNDLFDIDGGDAGLATPMPTPSVQQSVPLSALELGLETEAAVPVKQEPETVPTPALLNVRQQPPSTTTFVLNQINHLPPLGSTIVMTKTPPVTTNRQTITLTKFIQTTASTRPSVSAPTVRNAMTSAPSKDQVQLKDLLKNNSLNELMKLKPPANIAQPVATAATDVSNGTVKKESSNKEGARMWINDMKMRSFSPTMKVPVVKEDDEPEEEDEEEMGHAETYAEYMPIKLKIGLRHPDAVVETSSLSSVTPPDVWYKTSISEETIDNGWLSALQLEAITYAAQQHETFLPNGDRAGFLIGDGAGVGKGRTIAGIIYENYLLSRKRALWFSVSNDLKYDAERDLRDIGAKNILVHSLNKFKYGKISSKHNGSVKKGVIFATYSSLIGESQSGGKYKTRLKQLLHWCGDDFDGVIVFDECHKAKNLCPVGSSKPTKTGLAVLELQNKLPKARVVYASATGASEPRNMAYMNRLGIWGEGTPFREFSDFIQAVERRGVGAMEIVAMDMKLRGMYIARQLSFTGVTFKIEEVLLSQSYVKMYNKAVKLWVIARERFQQAADLIDAEQRMKKSMWGQFWSAHQRFFKYLCIASKVKRVVQLAREEIKNGKCVVIGLQSTGEARTLEALEEGGGELNDFVSTAKGVLQSLIEKHFPAPDRKKLYSLLGIDLTAPSNNSSPRDSPCKENKIKKRKGEEITREAKKARKVGGLTGSSSDDSGSESDASDNEESDYESSKNMSSGDDDDFNPFLDESNEDDENDPWLIRKDHKKNKEKKKKKSIDPDSIQSALLASGLGSKRPSFSSTPVISPAPNSTPANSNTNSNSSLITSQDAVERAQQMKKDLLDKLEKLAEDLPPNTLDELIDELGGPENVAEMTGRKGRVVSNDDGSISYESRSELDVPVEILNITEKQRFMDGDKNIAIISEAASSGISLQADRRAKNQRRRVHMTLELPWSADRAIQQFGRTHRSNQVTAPEYVFLISELAGEQRFASIVAKRLESLGALTHGDRRATESRDLSRFNFDNKYGRNALEIVMKSIVNLDSPMVSPPPDYPGEFFKDVRQGLIGVGLINVEDRSGILTLDKDYNNIGKFLNRILGMEVHQQNALFQYFADTLTAVVQNAKKNGRYDMGILDLGSGDEKVRKSDVKKFLTPGYSTSGHVELYTISVERGMSWEEATKIWAELTGPDDGFYLSLQIRNNKKTAILVKEVNPKKKLFLVYRPNTGKQLKLEIYADLKKKYKKVVSDDALMHWLDQYNSSADTCTHAYWRGNCKKASLGLVCEIGLRCRTYYVLCGSVLSVWTKVEGVLASVSGTNVKMQIVRLRTEDGQRIVGLIIPANCVSPLVNLLSTSDQSQQLAVQQKQLWQQHHPQSITNLSNA [SBNO1]	1.19	2.1	-0.158	0.0971	50.9 °C	51.4 °C
MVGQMYCYPGSHLARALTRALALALVLALLVGPFLSGLAGAIPAPGGRWARDGQVPPASRSRSVLLDVSAGQLLMVDGRHPDAVAWANLTNAIRETGWAFLELGTSGQYNDSLQAYAAGVVEAAVSEELIYMHWMNTVVNYCGPFEYEVGYCERLKSFLEANLEWMQEEMESNPDSPYWHQVRLTLLQLKGLEDSYEGRVSFPAGKFTIKPLGFLLLQLSGDLEDLELALNKTKIKPSLGSGSCSALIKLLPGQSDLLVAHNTWNNYQHMLRVIKKYWLQFREGPWGDYPLVPGNKLVFSSYPGTIFSCDDFYILGSGLVTLETTIGNKNPALWKYVRPRGCVLEWVRNIVANRLASDGATWADIFKRFNSGTYNNQWMIVDYKAFIPGGPSPGSRVLTILEQIPGMVVVADKTSELYQKTYWASYNIPSFETVFNASGLQALVAQYGDWFSYDGSPRAQIFRRNQSLVQDMDSMVRLMRYNDFLHDPLSLCKACNPQPNGENAISARSDLNPANGSYPFQALRQRSHGGIDVKVTSMSLARILSLLAASGPTWDQVPPFQWSTSPFSGLLHMGQPDLWKFAPVKVSWD [PLBD2]	-1.75	-1.5	-0.0289	0.298	56.6 °C	55.9 °C
MVGSALRRGAHAYVYLVSKASHISRGHQHQAWGSRPPAAECATQRAPGSVVELLGKSYPQDDHSNLTRKVLTRVGRNLHNQQHHPLWLIKERVKEHFYKQYVGRFGTPLFSVYDNLSPVVTTWQNFDSLLIPADHPSRKKGDNYYLNRTHMLRAHTSAHQWDLLHAGLDAFLVVGDVYRRDQIDSQHYPIFHQLEAVRLFSKHELFAGIKDGESLQLFEQSSRSAHKQETHTMEAVKLVEFDLKQTLTRLMAHLFGDELEIRWVDCYFPFTHPSFEMEINFHGEWLEVLGCGVMEQQLVNSAGAQDRIGWAFGLGLERLAMILYDIPDIRLFWCEDERFLKQFCVSNINQKVKFQPLSKYPAVINDISFWLPSENYAENDFYDLVRTIGGDLVEKVDLIDKFVHPKTHKTSHCYRITYRHMERTLSQREVRHIHQALQEAAVQLLGVEGRF [FARS2]	0.911	1.74	-0.0528	-0.187	49.7 °C	49.5 °C
MVHIKKGELTQEEKELLEVIGKGTVQEAGTLLSSKNVRVNCLDENGMTPLMHAAYKGKLDMCKLLLRHGADVNCHQHEHGYTALMFAALSGNKDITWVMLEAGAETDVVNSVGRTAAQMAAFVGQHDCVTIINNFFPRERLDYYTKPQGLDKEPKLPPKLAGPLHKIITTTNLHPVKIVMLVNENPLLTEEAALNKCYRVMDLICEKCMKQRDMNEVLAMKMHYISCIFQKCINFLKDGENKLDTLIKSLLKGRASDGFPVYQEKIIRESIRKFPYCEATLLQQLVRSIAPVEIGSDPTAFSVLTQAITGQVGFVDVEFCTTCGEKGASKRCSVCKMVIYCDQTCQKTHWFTHKKICKNLKDIYEKQQLEAAKEKRQEENHGKLDVNSNCVNEEQPEAEVGISQKDSNPEDSGEGKKESLESEAELEGLQDAPAGPQVSEE [ANKMY2]	-0.173	-0.528	-0.16	0.124	50.1 °C	–
MVKEQFRETDVAKKISHICFGMKSPEEMRQQAHIQVVSKNLYSQDNQHAPLLYGVLDHRMGTSEKDRPCETCGKNLADCLGHYGYIDLELPCFHVGYFRAVIGILQMICKTCCHIMLSQEEKKQFLDYLKRPGLTYLQKRGLKKKISDKCRKKNICHHCGAFNGTVKKCGLLKIIHEKYKTNKKVVDPIVSNFLQSFETAIEHNKEVEPLLGRAQENLNPLVVLNLFKRIPAEDVPLLLMNPEAGKPSDLILTRLLVPPLCIRPSVVSDLKSGTNEDDLTMKLTEIIFLNDVIKKHRISGAKTQMIMEDWDFLQLQCALYINSELSGIPLNMAPKKWTRGFVQRLKGKQGRFRGNLSGKRVDFSGRTVISPDPNLRIDEVAVPVHVAKILTFPEKVNKANINFLRKLVQNGPEVHPGANFIQQRHTQMKRFLKYGNREKMAQELKYGDIVERHLIDGDVVLFNRQPSLHKLSIMAHLARVKPHRTFRFNECVCTPYNADFDGDEMNLHLPQTEEAKAEALVLMGTKANLVTPRNGEPLIAAIQDFLTGAYLLTLKDTFFDRAKACQIIASILVGKDEKIKVRLPPPTILKPVTLWTGKQIFSVILRPSDDNPVRANLRTKGKQYCGKGEDLCANDSYVTIQNSELMSGSMDKGTLGSGSKNNIFYILLRDWGQNEAADAMSRLARLAPVYLSNRGFSIGIGDVTPGQGLLKAKYELLNAGYKKCDEYIEALNTGKLQQQPGCTAEETLEALILKELSVIRDHAGSACLRELDKSNSPLTMALCGSKGSFINISQMIACVGQQAISGSRVPDGFENRSLPHFEKHSKLPAAKGFVANSFYSGLTPTEFFFHTMAGREGLVDTAVKTAETGYMQRRLVKSLEDLCSQYDLTVRSSTGDIIQFIYGGDGLDPAAMEGKDEPLEFKRVLDNIKAVFPCPSEPALSKNELILTTESIMKKSEFLCCQDSFLQEIKKFIKGVSEKIKKTRDKYGINDNGTTEPRVLYQLDRITPTQVEKFLETCRDKYMRAQMEPGSAVGALCAQSIGEPGTQMTLKTFHFAGVASMNITLGVPRIKEIINASKAISTPIITAQLDKDDDADYARLVKGRIEKTLLGEISEYIEEVFLPDDCFILVKLSLERIRLLRLEVNAETVRYSICTSKLRVKPGDVAVHGEAVVCVTPRENSKSSMYYVLQFLKEDLPKVVVQGIPEVSRAVIHIDEQSGKEKYKLLVEGDNLRAVMATHGVKGTRTTSNNTYEVEKTLGIEAARTTIINEIQYTMVNHGMSIDRRHVMLLSDLMTYKGEVLGITRFGLAKMKESVLMLASFEKTADHLFDAAYFGQKDSVCGVSECIIMGIPMNIGTGLFKLLHKADRDPNPPKRPLIFDTNEFHIPLVT [POLR3A]	0.905	2.38	-0.101	-0.268	49.1 °C	49.9 °C
MVKIVTVKTQAYQDQKPGTSGLRKRVKVFQSSANYAENFIQSIISTVEPAQRQEATLVVGGDGRFYMKEAIQLIARIAAANGIGRLVIGQNGILSTPAVSCIIRKIKAIGGIILTASHNPGGPNGDFGIKFNISNGGPAPEAITDKIFQISKTIEEYAVCPDLKVDLGVLGKQQFDLENKFKPFTVEIVDSVEAYATMLRSIFDFSALKELLSGPNRLKIRIDAMHGVVGPYVKKILCEELGAPANSAVNCVPLEDFGGHHPDPNLTYAADLVETMKSGEHDFGAAFDGDGDRNMILGKHGFFVNPSDSVAVIAANIFSIPYFQQTGVRGFARSMPTSGALDRVASATKIALYETPTGWKFFGNLMDASKLSLCGEESFGTGSDHIREKDGLWAVLAWLSILATRKQSVEDILKDHWQKYGRNFFTRYDYEEVEAEGANKMMKDLEALMFDRSFVGKQFSANDKVYTVEKADNFEYSDPVDGSISRNQGLRLIFTDGSRIVFRLSGTGSAGATIRLYIDSYEKDVAKINQDPQVMLAPLISIALKVSQLQERTGRTAPTVIT [PGM1]	-0.26	0.494	-0.0698	0.266	57.6 °C	58.3 °C
MVLESTMVCVDNSEYMRNGDFLPTRLQAQQDAVNIVCHSKTRSNPENNVGLITLANDCEVLTTLTPDTGRILSKLHTVQPKGKITFCTGIRVAHLALKHRQGKNHKMRIIAFVGSPVEDNEKDLVKLAKRLKKEKVNVDIINFGEEEVNTEKLTAFVNTLNGKDGTGSHLVTVPPGPSLADALISSPILAGEGGAMLGLGASDFEFGVDPSADPELALALRVSMEEQRQRQEEEARRAAAASAAEAGIATTGTEDSDDALLKMTISQQEFGRTGLPDLSSMTEEEQIAYAMQMSLQGAEFGQAESADIDASSAMDTSEPAKEEDDYDVMQDPEFLQSVLENLPGVDPNNEAIRNAMGSLASQATKDGKKDKKEEDKK [PSMD4]	-0.808	-1.22	-0.0985	0.287	53.3 °C	53.9 °C
MVLESVARIVKVQLPAYLKRLPVPESITGFARLTVSEWLRLLPFLGVLALLGYLAVRPFLPKKKQQKDSLINLKIQKENPKVVNEINIEDLCLTKAAYCRCWRSKTFPACDGSHNKHNELTGDNVGPLILKKKEV [CISD2]	-4.5	-5.22	0.0164	0.0551	54.2 °C	54.7 °C
MVLIKEFRVVLPCSVQEYQVGQLYSVAEASKNETGGGEGIEVLKNEPYEKDGEKGQYTHKIYHLKSKVPAFVRMIAPEGSLVFHEKAWNAYPYCRTIVTNEYMKDDFFIKIETWHKPDLGTLENVHGLDPNTWKTVEIVHIDIADRSQVEPADYKADEDPALFQSVKTKRGPLGPNWKKELANSPDCPQMCAYKLVTIKFKWWGLQSKVENFIQKQEKRIFTNFHRQLFCWIDKWIDLTMEDIRRMEDETQKELETMRKRGSVRGTSAADV [PITPNB]	2.34	2.14	-0.0681	0.199	52.9 °C	53.4 °C

Source: the supplement of paper PMC5998384
